Measurements published in patent publication US20230330222A1 (ASCENDO BIOTECHNOLOGY, published 2023).
One block for each binder: values may come before it.

T1: recombinant CD14 (human, UniProt P08571 20-352, limits assumed)
T1 construct: also called hCD14
T1 sequence (looked up): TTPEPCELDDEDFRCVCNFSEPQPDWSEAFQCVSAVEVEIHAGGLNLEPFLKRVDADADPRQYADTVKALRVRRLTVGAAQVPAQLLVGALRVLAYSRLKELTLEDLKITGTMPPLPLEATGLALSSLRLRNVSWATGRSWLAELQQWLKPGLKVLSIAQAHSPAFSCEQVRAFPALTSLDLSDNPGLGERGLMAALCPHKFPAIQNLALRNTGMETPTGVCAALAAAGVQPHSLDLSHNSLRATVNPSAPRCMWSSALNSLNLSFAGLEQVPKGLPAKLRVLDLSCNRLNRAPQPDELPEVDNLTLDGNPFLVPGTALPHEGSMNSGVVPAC

T2: recombinant mouse MD2 protein (mouse, UniProt Q9JHF9 19-160)
T2 construct: also called mMD2
T2 sequence (looked up): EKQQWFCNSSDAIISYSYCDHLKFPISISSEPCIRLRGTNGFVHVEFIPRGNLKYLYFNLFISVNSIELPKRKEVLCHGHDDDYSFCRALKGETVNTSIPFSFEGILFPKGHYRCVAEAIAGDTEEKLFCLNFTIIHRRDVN

B1: recombinant TREML1 ECD (human TREM-like transcript-1 extracellular domain) (ligand)
chain: QGIVGSLPEVLQAPVGSSILVQCHYRLQDVKAQKVWCRFLPEGCQPLVSSAVDRRAPAGRRTFLTDLGGGLLQVEMVTLQEEDAGEYGCMVDGARGPQILHRVSLNILPPEEEEETHKIGSLAENAFSDPAGSANPLEPSQDEKSIP
notes: Expressed in E. coli from pET30-TREML1 and purified on Ni-NTA; also called hTREML1; not shown: N-terminal polyhistidine tag from pET30
B2: recombinant human MD2 protein (receptor, UniProt Q9Y6Y9 19-160, looked up)
chain: QKQYWVCNSSDASISYTYCDKMQYPISINVNPCIELKRSKGLLHIFYIPRRDLKQLYFNLYITVNTMNLPKRKEVICRGSDDDYSFCRALKGETVNTTISFSFKGIKFSKGKYKCVVEAISGSPEEMLFCLEFVILHQPNSN
notes: also called hMD2; LY96

Assays:
recombinant CD14 [1] = molecular target: T1, recombinant CD14; experiment: solid phase binding assay, CD14 coated at 5 ug/ml
Experimental: (§1) To identify potential binding partners of TREML1 ECD, we used solid phase binding assay to assess interactions between TREML1 ECD and candidate proteins. Briefly, various candidate proteins and BSA (as a negative control) were coated on a 96-well plate and TREML1 ECD at various concentrations were added to the wells. After binding and washing, an anti-TREML1 antibody conjugated with horse radish peroxidase (HRP) was added to each well. After washing, HRP substrate, TMB (3,3′,5,5′-tetramethylbenzidine), was added. After reaction, absorbance at 450 nm was measured to assess TREML1 binding. An exemplary set of results is shown in FIG. 2, in which recombinant TREML1 ECD binds MD2 and TLR4 in a concentration-dependent manner.
(§2) To investigate the protein-protein interactions. Recombinant TLR4 (5 ug/ml in PBS), MD2 (5 ug/ml in PBS), CD14 (5 ug/ml in PBS), and BSA (negative control) proteins were plated separately on 96-well plates and incubated overnight at 4 degrees Celsius. The blocking buffer (2% BSA in PBS) was added to avoid the nonspecific binding for 2 hr at room temperature. A serial diluted TREML1 ECD (2.5 ug/ml to 156 ng/ml, 2-fold dilutions) solutions were added and allowed to incubate at room temperature for 2 hr. Then, anti-TREML1 antibody (1 ug/ml in PBS) was added for 1 hr. […] Absorbance at OD450/540 nm was measured with a microplate reader.

BSA (negative control) = BSA (negative control) (UniProt P02769 25-607); experiment: solid phase binding assay, BSA coated as negative control
BSA (negative control), sequence (P02769 25-607 limits assumed): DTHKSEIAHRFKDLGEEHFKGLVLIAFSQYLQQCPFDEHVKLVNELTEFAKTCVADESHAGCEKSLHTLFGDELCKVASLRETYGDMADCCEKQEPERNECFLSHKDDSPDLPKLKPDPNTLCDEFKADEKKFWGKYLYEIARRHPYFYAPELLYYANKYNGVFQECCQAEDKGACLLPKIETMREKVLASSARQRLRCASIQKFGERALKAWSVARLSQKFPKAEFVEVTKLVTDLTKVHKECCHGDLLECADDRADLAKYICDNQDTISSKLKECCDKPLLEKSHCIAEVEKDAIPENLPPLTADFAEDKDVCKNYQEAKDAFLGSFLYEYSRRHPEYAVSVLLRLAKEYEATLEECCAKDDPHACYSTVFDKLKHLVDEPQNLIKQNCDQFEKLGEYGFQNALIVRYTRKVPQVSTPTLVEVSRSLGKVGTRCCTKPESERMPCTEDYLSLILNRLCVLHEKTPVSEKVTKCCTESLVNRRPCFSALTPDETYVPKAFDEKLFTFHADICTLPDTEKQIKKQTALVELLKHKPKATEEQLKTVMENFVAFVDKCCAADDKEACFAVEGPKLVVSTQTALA
Experimental: as §1, §2

[2] = molecular target: T2, recombinant mouse MD2 protein; experiment: solid phase binding assay, mTREML1 stalk coated, anti-His-HRP detection
Experimental: (§3) For TREML1 or mTREML1 stalk binding to human or mouse MD2 protein, TREML1 stalk or mTREML1 stalk (5 ug/ml in PBS) was coated separately on a 96-well plate. Recombinant hTLR4, hMD2, hCD14, or mMD2 was each serially diluted and added to the plates. Anti-His tag antibody-HRP was used as a detection antibody to detect the protein binding.

[3] = molecular target: B1; experiment: solid phase binding assay, MD2 coated
Experimental: as §1, §2

[4] = molecular target: B2; experiment: solid phase binding assay, TREML1 stalk coated, anti-His-HRP detection
Experimental: as §3

[5] = molecular target: T3, recombinant TLR4 (toll-like receptor 4) (human, UniProt O00206 24-631, limits assumed); experiment: solid phase binding assay, TREML1 stalk coated at 5 ug/ml, anti-His-HRP detection
T3 construct: also called hTLR4
T3 sequence (O00206 24-631 limits assumed): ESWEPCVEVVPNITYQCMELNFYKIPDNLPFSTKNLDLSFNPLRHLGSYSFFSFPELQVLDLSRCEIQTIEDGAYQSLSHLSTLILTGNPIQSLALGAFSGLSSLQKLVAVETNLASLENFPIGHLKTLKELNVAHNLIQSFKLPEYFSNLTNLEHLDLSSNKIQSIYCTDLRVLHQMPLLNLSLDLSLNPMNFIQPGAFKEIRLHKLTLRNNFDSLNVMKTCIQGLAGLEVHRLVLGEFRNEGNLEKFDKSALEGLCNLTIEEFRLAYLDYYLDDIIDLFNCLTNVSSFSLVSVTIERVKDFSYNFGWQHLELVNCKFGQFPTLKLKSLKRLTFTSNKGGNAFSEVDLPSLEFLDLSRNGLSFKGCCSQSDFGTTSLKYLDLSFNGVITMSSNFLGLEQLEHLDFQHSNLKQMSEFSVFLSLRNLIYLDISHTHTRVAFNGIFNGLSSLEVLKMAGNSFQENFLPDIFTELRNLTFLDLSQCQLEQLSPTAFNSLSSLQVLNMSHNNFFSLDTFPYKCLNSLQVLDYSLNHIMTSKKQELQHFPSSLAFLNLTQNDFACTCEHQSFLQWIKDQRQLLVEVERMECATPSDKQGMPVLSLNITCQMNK
Experimental: as §3

recombinant CD14 [6] = molecular target: T1, recombinant CD14; experiment: as above
Experimental: as §3

Binder: B1
binding result (recombinant CD14 [1]): no binding (tested: 2.5 ug/ml to 156 ng/ml TREML1 ECD)
binding result (BSA (negative control)): no binding (tested: 2.5 ug/ml to 156 ng/ml TREML1 ECD)

binding result [2]: binds
Binder: EGEEAEDEKETYRIGTGSLLEDPSLDPSASAGPHEFRRRENSIP (also called mouse TREML1 stalk) [mTREML1 stalk polypeptide (mouse)]

Binder: B2
binding result [3]: binds

binding result [4]: binds
binding result [5]: no binding
binding result (recombinant CD14 [6]): no binding
Binder: ILPPEEEEETHKIGSLAENAFSDPAGSANPLEPSQDEKSIP [TREML1 stalk polypeptide (human)]
